# Assay results: patent US20110123544A1 (published 2011)
# T1: recombinant human IL-12 (rhIL-12) (human, UniProt P29459 23-219; P29460 23-328)
# T1 chain 1: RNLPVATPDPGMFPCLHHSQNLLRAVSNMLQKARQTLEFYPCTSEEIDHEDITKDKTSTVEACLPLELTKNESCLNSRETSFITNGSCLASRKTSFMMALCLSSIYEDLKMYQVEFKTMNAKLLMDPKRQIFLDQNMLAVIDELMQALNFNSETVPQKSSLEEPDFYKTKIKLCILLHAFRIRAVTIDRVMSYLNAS
# T1 chain 2: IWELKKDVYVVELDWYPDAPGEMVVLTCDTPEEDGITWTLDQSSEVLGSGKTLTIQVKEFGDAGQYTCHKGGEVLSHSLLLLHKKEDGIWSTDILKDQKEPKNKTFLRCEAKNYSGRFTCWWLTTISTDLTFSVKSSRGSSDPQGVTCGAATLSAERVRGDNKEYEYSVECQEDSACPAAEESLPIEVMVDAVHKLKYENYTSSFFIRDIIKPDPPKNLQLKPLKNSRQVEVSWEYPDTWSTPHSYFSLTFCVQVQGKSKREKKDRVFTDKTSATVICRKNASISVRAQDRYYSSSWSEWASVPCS
# T2: recombinant human interleukin 12 (p40/p35 heterodimer) (human, UniProt P29460 23-328; P29459 23-219)
# T2 chain 1: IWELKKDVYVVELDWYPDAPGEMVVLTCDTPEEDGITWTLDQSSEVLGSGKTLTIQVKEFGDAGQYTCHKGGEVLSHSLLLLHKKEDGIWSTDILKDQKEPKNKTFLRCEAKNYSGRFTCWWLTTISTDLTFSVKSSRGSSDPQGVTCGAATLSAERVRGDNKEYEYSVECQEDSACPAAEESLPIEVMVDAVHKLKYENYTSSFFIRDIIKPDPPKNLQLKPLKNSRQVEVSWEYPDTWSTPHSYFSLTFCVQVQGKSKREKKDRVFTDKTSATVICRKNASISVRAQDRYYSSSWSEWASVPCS
# T2 chain 2: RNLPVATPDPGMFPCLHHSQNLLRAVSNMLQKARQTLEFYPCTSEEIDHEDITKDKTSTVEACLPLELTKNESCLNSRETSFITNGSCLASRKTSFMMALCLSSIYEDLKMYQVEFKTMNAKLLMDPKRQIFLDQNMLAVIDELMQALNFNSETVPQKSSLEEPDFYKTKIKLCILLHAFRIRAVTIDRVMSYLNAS
# Biological target: T1, recombinant human IL-12 (rhIL-12)
# Test: BIAcore
row,koff [s⁻¹],Binder
1,0.00164,SGGRSNIGSNVVK [Y61 L32 V]
2,0.000357,SGGRSNIGSYTVK [Y61 L31 Y]
3,0.000182,SGGRSNIGRNTVK [Y61 L30 R]
4,0.00022,SGGRSNIGDNTVK [Y61 L30 D]
5,0.000392,SGGRSNIGSSTVK [Y61 L31 S]
6,0.000252,SGGRSNIGSNDVK [Y61 L32 D]
7,0.00025,SGGRSNIGPNTVK [Y61 L30 P]
8,0.000331,SGGRSNIGSKTVK [Y61 L31 K]
9,0.000309,SGGRSNIGSTTVK [Y61 L31 T]
10,0.000346,SGGRSNIGKNTVK [Y61 L30 K]
11,0.000186,SGGRSNIGCNTVK [Y61 L30 C]
12,0.000226,SGGRSNIGTNTVK [Y61 L30 T]
13,0.00197,SGGRSNIGSNNVK [Y61 L32 N]
14,0.000292,SGGRSNIGSQTVK [Y61 L31 Q]
15,0.00154,SGGRSNIGSNIVK [Y61 L32 I]
16,0.00026,SGGRSNIGSNHVK [Y61 L32 H]
17,0.0069,SGGRSNIGSNRVK [Y61 L32 R]
18,0.000384,SGGRSNIGSETVK [Y61 L31 E]
19,0.00058,SGGRSNIGSDTVK [Y61 L31 D]
20,0.000174,SGGRSNIGSMTVK [Y61 L31 M]
21,0.000213,SGGRSNIGSNYVK [Y61 L32 Y]

# Biological target: T2, recombinant human interleukin 12 …
# Test: BIAcore
row,koff [s⁻¹],Binder
1,0.000383,FIRYDGSMKYYADSVKG [Y61 H56 M]
2,0.000624,FIRYDGSSKYYADSVKG [Y61 H56 S]
3,0.000657,FIRYDGSNKIYADSVKG [Y61 H58 I]
4,0.000169,FIRYDGSIKYYADSVKG [Y61 H56 I]
5,0.000831,FIRYDGSNKNYADSVKG [Y61 H58 N]
6,0.000794,FIRYDGSNKFYADSVKG [Y61 H58 F]
7,0.000299,FIRYDGSPKYYADSVKG [Y61 H56 P]
8,0.000235,FIRYDGSTKYYADSVKG [Y61 H56 T]
9,0.000663,FIRYDFSNKYYADSVKG [Y61 H54 F]
10,0.000941,FIRYDGSNKSYADSVKG [Y61 H58 S]
11,0.000272,FIRYDGSGKYYADSVKG [Y61 H56 G]
12,0.00073,FIRYDGSNKLYADSVKG [Y61 H58 L]
13,0.000345,FIRYDGSFKYYADSVKG [Y61 H56 F]
14,0.000628,FIRYDGSNKPYADSVKG [Y61 H58 P]
15,0.000415,FIRYDGSNKEYADSVKG [Y61 H58 E]
16,0.00039,FIRYDGSYKYYADSVKG [Y61 H56 Y]
17,0.00042,FIRYDGSHKYYADSVKG [Y61 H56 H]
18,0.000264,FIRYDGSLKYYADSVKG [Y61 H56 L]
19,0.000524,FIRYDGSNKVYADSVKG [Y61 H58 V]

# Biological target: T1, recombinant human IL-12 (rhIL-12)
# Test: BIAcore
# Remark: another data set of the same source
row,koff [s⁻¹],Binder
1,0.000325,HGSHDS [Y61 H102 S]
2,0.000405,HGSHDK [Y61 H102 K]
3,0.000235,HGSHDW [Y61 H102 W]

# Biological target: T1, recombinant human IL-12 (rhIL-12)
# Test: BIAcore
# Remark: another data set of the same source
row,koff [s⁻¹],Binder
1,0.00041,PNDQRPS [Y61 L50 P]
2,0.000761,HNDQRPS [Y61 L50 H]
3,0.000348,QNDQRPS [Y61 L50 Q]
4,0.0348,FNDQRPS [Y61 L50 F]
5,0.000614,GNDRRPS [Y61 L53 R]
6,0.000855,GNDIRPS [Y61 L53 I]
7,0.000286,SNDQRPS [Y61 L50 S]
8,0.000953,MNDQRPS [Y61 L50 M]
9,0.000974,GNDPRPS [Y61 L53 P]
10,0.000385,VNDQRPS [Y61 L50 V]
11,0.000272,TNDQRPS [Y61 L50 T]
12,0.000834,GNDTRPS [Y61 L53 T]
13,0.000382,WNDQRPS [Y61 L50 W]
14,0.000866,GNDSRPS [Y61 L53 S]
15,0.000554,GNDARPS [Y61 L53 A]
16,0.000444,RNDQRPS [Y61 L50 R]
17,0.000372,ANDQRPS [Y61 L50 A]
18,0.00243,KNDQRPS [Y61 L50 K]
19,0.000305,NNDQRPS [Y61 L50 N]
20,0.000617,ENDQRPS [Y61 L50 E]
21,0.000733,GNDYRPS [Y61 L53 Y]
22,0.0012,INDQRPS [Y61 L50 I]
23,0.000467,CNDQRPS [Y61 L50 C]
24,0.000348,DNDQRPS [Y61 L50 D]
25,0.000616,LNDQRPS [Y61 L50 L]
